Test results from PMC4971492.

Target: Bio-GFP-tagged KIF21A STALK (whole KIF21A stalk domain) (human)
Assay: single-molecule GFP counting (TIRF); HEK293T cell extracts with Bio-GFP-tagged constructs, molecules immobilised on coverslips, initial fluorescence intensities against monomeric GFP and dimeric EB1-GFP; room temperature

Bio-GFP-tagged KIF21A STALK (whole KIF21A stalk domain) (domain or fragment), sequence (Q7Z4S6 whole entry, the tested form may be a part): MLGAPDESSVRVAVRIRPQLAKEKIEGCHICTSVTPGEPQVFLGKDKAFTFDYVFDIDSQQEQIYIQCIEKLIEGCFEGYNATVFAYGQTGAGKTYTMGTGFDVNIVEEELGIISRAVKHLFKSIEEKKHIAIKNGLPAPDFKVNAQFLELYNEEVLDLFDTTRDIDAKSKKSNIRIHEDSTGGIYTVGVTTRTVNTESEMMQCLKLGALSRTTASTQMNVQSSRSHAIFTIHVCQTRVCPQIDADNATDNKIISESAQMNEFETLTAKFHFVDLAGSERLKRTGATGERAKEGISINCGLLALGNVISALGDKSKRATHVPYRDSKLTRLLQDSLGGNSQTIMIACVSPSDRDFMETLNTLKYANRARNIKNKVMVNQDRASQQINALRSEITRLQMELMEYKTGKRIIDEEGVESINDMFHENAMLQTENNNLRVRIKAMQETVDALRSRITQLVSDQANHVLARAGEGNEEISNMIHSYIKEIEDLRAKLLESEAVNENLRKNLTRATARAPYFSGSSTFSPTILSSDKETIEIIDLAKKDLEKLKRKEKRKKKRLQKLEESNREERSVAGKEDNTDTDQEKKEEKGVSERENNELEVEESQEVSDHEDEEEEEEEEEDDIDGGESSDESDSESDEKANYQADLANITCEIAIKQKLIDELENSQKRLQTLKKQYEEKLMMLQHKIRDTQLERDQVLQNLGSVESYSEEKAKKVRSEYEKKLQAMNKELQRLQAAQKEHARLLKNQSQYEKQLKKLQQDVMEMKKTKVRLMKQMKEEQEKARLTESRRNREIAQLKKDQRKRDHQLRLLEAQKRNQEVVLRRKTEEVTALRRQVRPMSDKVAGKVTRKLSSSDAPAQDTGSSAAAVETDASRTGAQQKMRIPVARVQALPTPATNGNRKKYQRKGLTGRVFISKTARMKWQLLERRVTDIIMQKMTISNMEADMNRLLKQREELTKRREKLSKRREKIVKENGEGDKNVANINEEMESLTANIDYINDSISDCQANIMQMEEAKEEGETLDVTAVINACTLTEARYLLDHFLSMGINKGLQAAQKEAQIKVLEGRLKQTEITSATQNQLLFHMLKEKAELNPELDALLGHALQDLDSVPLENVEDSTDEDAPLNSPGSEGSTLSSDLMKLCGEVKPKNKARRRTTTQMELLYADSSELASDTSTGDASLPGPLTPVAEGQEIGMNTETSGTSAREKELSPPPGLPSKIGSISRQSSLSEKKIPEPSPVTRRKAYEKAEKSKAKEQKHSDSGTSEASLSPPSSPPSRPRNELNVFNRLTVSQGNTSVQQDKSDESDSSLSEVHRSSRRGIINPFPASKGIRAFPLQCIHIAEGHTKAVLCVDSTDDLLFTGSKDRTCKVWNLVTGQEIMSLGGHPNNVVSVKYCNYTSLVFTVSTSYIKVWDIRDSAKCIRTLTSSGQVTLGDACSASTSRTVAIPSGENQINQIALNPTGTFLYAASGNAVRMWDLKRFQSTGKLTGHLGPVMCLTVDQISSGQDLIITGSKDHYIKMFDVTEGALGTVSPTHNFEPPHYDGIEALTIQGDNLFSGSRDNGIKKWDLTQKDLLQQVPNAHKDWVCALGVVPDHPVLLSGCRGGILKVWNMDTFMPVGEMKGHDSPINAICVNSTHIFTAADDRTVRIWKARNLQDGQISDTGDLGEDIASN

stoichiometry N: 2
Substance: Bio-GFP-tagged KIF21A STALK (whole KIF21A stalk domain) (domain or fragment)
